Data taken from PMC4539566.

Molecular target: fibronectin (Fn) isolated from human plasma, as manually pulled single Fn fibres (human) (UniProt P02751)
Experiment: fluorescence microscopy of a labelled peptide on single Fn fibres (fibre stretch assay); Fn fibres (10% Fn-Alexa647) held across PDMS trenches in a uniaxial strain device, relaxed or stretched (40%, 140%, 380% absolute strain); blocked with 4% BSA 30 min; incubated with CLP-Alexa488 30 min, rinsed and imaged in PBS; CLP-Alexa488/Fn-Alexa647 intensity ratio normalised to the 140% strain point

Sequence of UniProt P02751 (P02751 32-2477): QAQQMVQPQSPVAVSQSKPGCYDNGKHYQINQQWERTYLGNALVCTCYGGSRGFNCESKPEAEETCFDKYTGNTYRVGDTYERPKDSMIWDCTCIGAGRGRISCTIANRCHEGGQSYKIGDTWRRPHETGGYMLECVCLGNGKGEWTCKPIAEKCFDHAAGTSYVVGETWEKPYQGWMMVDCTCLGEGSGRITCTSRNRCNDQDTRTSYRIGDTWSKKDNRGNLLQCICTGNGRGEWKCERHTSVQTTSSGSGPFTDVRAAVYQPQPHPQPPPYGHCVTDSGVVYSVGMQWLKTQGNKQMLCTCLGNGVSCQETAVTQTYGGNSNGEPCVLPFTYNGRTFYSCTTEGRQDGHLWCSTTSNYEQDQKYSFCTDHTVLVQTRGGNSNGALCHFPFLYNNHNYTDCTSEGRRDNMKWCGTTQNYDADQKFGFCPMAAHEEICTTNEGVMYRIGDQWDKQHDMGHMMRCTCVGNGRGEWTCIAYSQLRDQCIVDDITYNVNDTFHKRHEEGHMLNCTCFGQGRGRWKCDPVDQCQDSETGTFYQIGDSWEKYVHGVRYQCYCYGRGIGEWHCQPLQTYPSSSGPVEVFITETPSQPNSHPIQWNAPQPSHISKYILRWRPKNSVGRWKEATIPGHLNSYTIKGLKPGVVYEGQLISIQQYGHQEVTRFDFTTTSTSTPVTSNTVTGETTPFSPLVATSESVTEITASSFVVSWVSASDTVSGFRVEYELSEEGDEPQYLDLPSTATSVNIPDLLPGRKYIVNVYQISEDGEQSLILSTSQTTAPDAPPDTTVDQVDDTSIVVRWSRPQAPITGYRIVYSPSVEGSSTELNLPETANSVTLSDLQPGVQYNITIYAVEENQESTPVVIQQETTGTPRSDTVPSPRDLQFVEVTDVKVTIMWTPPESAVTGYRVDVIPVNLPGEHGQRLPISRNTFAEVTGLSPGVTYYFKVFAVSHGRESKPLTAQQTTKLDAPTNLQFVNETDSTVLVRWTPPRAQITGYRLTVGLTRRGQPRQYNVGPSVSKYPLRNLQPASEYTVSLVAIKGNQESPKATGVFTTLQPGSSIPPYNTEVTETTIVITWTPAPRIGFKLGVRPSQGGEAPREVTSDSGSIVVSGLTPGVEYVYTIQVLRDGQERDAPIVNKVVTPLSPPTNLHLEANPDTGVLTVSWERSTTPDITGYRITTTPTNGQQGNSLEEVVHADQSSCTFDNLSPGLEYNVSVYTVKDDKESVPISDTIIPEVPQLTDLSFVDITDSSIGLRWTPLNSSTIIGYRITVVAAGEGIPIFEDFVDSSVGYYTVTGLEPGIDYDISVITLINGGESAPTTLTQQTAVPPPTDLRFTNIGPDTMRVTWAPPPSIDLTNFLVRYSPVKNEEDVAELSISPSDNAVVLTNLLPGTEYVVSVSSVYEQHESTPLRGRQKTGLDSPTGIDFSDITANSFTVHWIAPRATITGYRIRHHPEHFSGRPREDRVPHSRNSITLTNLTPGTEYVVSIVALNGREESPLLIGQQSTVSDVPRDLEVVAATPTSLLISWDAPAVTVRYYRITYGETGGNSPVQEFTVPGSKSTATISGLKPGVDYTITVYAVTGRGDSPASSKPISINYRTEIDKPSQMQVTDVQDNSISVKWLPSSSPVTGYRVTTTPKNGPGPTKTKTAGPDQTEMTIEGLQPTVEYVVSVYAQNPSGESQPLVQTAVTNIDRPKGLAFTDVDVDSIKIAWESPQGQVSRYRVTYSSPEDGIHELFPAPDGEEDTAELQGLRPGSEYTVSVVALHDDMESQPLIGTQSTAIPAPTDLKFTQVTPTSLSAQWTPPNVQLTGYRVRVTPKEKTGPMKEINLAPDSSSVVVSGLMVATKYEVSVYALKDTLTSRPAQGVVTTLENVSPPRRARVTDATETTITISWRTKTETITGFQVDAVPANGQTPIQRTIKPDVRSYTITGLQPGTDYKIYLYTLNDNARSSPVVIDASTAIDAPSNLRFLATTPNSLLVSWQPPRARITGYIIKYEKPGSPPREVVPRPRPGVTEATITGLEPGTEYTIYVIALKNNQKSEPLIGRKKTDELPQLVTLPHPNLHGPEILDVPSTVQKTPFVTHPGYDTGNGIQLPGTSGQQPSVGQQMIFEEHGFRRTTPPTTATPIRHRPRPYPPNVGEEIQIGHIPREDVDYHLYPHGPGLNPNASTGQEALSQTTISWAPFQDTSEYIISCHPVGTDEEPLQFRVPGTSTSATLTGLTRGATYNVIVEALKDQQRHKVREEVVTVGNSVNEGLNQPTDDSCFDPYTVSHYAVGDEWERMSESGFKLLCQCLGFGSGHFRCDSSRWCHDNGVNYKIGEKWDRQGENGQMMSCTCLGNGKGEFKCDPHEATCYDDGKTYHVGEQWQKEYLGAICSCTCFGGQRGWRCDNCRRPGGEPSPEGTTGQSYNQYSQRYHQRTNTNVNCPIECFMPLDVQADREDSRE

drop of the CLP/Fn intensity ratio from low to high Fn fibre strain: 52%
Substance: synthetic collagen peptide (CLP) derived from the Fn-binding region of the α1 chain of type I collagen (residues Q778-G799), with a terminal cysteine
